{
  "source": "patent US10617701B2",
  "about": "“Nutritional compositions containing phosphatidylethanolamine, sphingomyelin and docosahexaenoic acid” (Mead Johnson Nutrition Company, priority 2015, dated 2020)",
  "system": "embryonic mouse cortical cells",
  "assay": "Functional neuronal maturation of cortical networks on microelectrode arrays (MEA recording, chronic treatment)",
  "format": "cell-based",
  "conditions": "cortical networks on MEAs",
  "protocol": "Cortical cells were grown on multi-well microelectrode arrays (MEAs) and treated with 10 different experimental series, including different combinations of test agents (PE, SM, LF and DHA) and the activity was recoded at 4 different time points during the 4 weeks of functional neuronal maturation Cells growing on glass slides were treated in parallel for morphological and cell population analysis. These experiments aimed to elucidate whether the test compounds affect the functional and morphological neuronal maturation […] (see FIG. 1). […]\nPrimary cell culture for MEA recordings: In brief, frontal cortex tissue was harvested from embryonic day […] NMRI mice. […] Cultures on MEAs were incubated at 37° C. in a 10% CO2 atmosphere until ready for use, which usually is four weeks to three months after seeding. […]\nMultichannel Recording: After establishing a stable activity pattern after 4 weeks, the neuronal networks on MEA chips are employed for substance testing. […] The signals routinely recorded by these neurochips are located in a range of 15-1800 […] . […]",
  "data": [
    {"molecule": "lactoferrin (protein, UniProt P24627 20-708, looked up) Lactotransferrin: APRKNVRWCTISQPEWFKCRRWQWRMKKLGAPSITCVRRAFALECIRAIAEKKADAVTLDGGMVFEAGRDPYKLRPVAAEIYGTKESPQTHYYAVAVVKKGSNFQLDQLQGRKSCHTGLGRSAGWIIPMGILRPYLSWTESLEPLQGAVAKFFSASCVPCIDRQAYPNLCQLCKGEGENQCACSSREPYFGYSGAFKCLQDGAGDVAFVKETTVFENLPEKADRDQYELLCLNNSRAPVDAFKECHLAQVPSHAVVARSVDGKEDLIWKLLSKAQEKFGKNKSRSFQLFGSPPGQRDLLFKDSALGFLRIPSKVDSALYLGSRYLTTLKNLRETAEEVKARYTRVVWCAVGPEEQKKCQQWSQQSGQNVTCATASTTDDCIVLVLKGEADALNLDGGYIYTAGKCGLVPVLAENRKSSKHSSLDCVLRPTEGYLAVAVVKKANEGLTWNSLKDKKSCHTAVDRTAGWNIPMGLIVNQTGSCAFDEFFSQSCAPGADPKSRLCALCAGDDQGLDKCVPNSKEKYYGYTGAFRCLAEDVGDVAFVKNDTVWENTNGESTADWAKNLNREDFRLLCLDGTRKPVTEAQSCHLAVAPNHAVVSRSDRAAHVKQVLLHQQALFGKNGKNCPDKFCLFKSETKNLLFNDNTECLAKLGGRPTYEEYLGTEYVTAIANLKKCSTSPLLEACAFLTR", "values": [
      {"measurement": "acute effect on neuronal network activity in vitro", "result": "acutely affect neuronal network activity"}
    ]}
  ]
}
